Experiments:
[1] = biological target: the molecule itself; assay: crystal structure
[2] = biological target: T1, KorB (wild type), C-terminally His-tagged (plasmid RK2, UniProt P07674 1-358); assay: ITC
T1 sequence: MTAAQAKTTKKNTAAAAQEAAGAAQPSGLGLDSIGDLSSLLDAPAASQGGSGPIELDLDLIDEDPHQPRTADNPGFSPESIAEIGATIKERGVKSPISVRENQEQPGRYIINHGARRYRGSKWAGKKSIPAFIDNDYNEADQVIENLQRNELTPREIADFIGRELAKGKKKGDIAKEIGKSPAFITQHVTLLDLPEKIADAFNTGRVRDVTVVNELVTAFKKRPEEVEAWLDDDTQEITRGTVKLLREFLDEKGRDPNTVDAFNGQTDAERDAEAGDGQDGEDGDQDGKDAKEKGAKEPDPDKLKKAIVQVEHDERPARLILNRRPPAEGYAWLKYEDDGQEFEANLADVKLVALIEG

B1: KorA (wild type), C-terminally His-tagged (natural protein)
chain: MKKRLTESQFQEAIQGLEVGQQTIEIARGVLVDGKPQATFATSLGLTRGAVSQAVHRVWAAFEDKNLPEGYARVTAVLPEHQAYIVRKWEADAKKKQETKR
binding result [1]: binds
Kd [2]: 4.2 ± 0.5 µM

Reference: publication doi:10.1101/2024.02.16.579611 (bioRxiv, 2024)
